Test [1] deals with human Mo-DCs. As to the kind of experiment: Quantitative RT-PCR of CCR7, IDO, BIC-1, SOD2 in Mo-DCs. In kind it is cell-based. On the set-up: key to IDO / BIC-1: (−) negligible; (+) low; (++) moderate; (+++) high. On the procedure:
Mo-DCs (10^6/condition) were harvested at day 7 and the mRNA was extracted using the RNeasy RNA Isolation kit (Qiagen) and incubated with RNase-free DNase I (Ambion, Austin, Tex.) according to the manufacturer's protocol. A two-step real-time RT-PCR technique was used to determine the relative mRNA levels of human CCR7, BIC-1, IDO and SOD2. Reverse transcription reactions were performed with 500 ng of total RNA using the Omniscript RT kit (Qiagen). Quantification of mRNA levels was performed by real-time polymerase chain reaction (PCR) with the use of the LightCycler technology (Roche Molecular Biochemicals, Indianapolis, Ind.). The following primers were used: CCR7-f (5′-TGGGCATCTGGATACTAGC-3′) (SEQ ID NO:6), CCR7-r (5′-AAGAAAGGGTTGACGCAGC-3′) (SEQ ID NO:7); IDO-f (5′-[…]-3′) (SEQ ID NO:8); IDO-r (5′-[…]-3′) (SEQ ID NO:9); BIC-1-f (5′-[…]-3′) (SEQ ID NO:10), BIC-1-r (5′-[…]-3′) (SEQ ID NO:11); SOD2-f (5′-GACAAACCTCAGCCCTAAC-3′) (SEQ ID NO:12), SOD2-r (5′-[…]-3′) (SEQ ID NO:13), yielding products of 435, 227, 296 bp, and 248 bp, respectively. These gene-specific primer pairs were designed using Oligo 4.0 and Primer 3 software packages (MBI, Cascade, Colo.) and selected to prevent primer-dimer formation.
All samples were normalized with the use of the following primer set for the constitutively expressed human cyclophilin gene: CypA-f (5′-[…]-3′) (SEQ ID NO:14) and CypA-r (5′-CACCACATGCTTGCCATCC-3′) (SEQ ID NO:15) (Pluvinet R. et al., 2004, Blood. 104: 3642-3646). All primers were purchased from Bonsai Technologies (Copenhagen, Denmark).
PCR amplifications were performed in a 20 μl volume containing 2 μl ready-to-use reaction mix, 10×DNA Master SYBR Green I (Roche Molecular Biochemicals); MgCl2 (3 mM for CCR7; 4 mM for BIC-1 and SOD2, and 5 mM for IDO); 0.15 μM of each primer; 5% dimethyl sulfoxide (DMSO); and 75 ng cDNA as template. The amplification program used an initial denaturation at 95° C. for 10 min, followed by 45 cycles: 95° C. for 1 sec; 58° C. (CCR7 and SOD2)/60° C. (BIC-1 and IDO) for 5 sec; 72° C. for 10 sec.

The test system of another test is LPS-matured human Mo-DCs. Put plainly: DC cytokine secretion (Th1/Th2 Flow cytomix Multiplex). In kind it is cell-based. Set-up: key to IL-12 / IL-6 / IL-8 / IL-10 / TNF-α / IFN-γ: (−) negligible; (+) low; (++) moderate; (+++) high. On the procedure:
Concentrations of IL-12p70, TNF-α, IFN-γ, IL-10, IL-6 and IL-8, were determined from DC supernatants treated with the C4BP isoforms α7β1 and α7β0 using the Th1/Th2 Flow cytomix Multiplex kit (Bender-Medsystems, Viena, Austria), according to the manufacturer's instructions.

For test [2], the system named is human Mo-DCs. As to the kind of experiment: Scanning electron microscopy of Mo-DC surface morphology. In kind it is cell-based. On the set-up: key to Dendrite density and lenght: (−) negligible; (+) low; (++) moderate; (+++) high. On the procedure:
Monocytes were seeded on glass slides covered with either poly-L-lysine (25 μg/ml) or fibronectin (42 μg/ml), cultured for 5 days in complete RPMI medium supplemented with 800 U/ml GM-CSF, 500 U/ml IL-4, and the C4BP isoforms α7β1, α7β0, or Factor H (10 μg/ml), and further stimulated with LPS for 48 hours in the same medium. The resulting DCs were fixed in 1% paraformaldehyde and 1.25% glutaraldehyde in cacodylate buffer for 2 h. Finally, the cells were post-fixed in 1% OsO4, and dehydrated with graded series of ethanol followed by acetone. After dehydration the cells were dried in a critical-point dryer and coated with gold before observation by scanning electron microscopy (Zeiss DSM940A).

Another test concerns allogeneic CD3+ T cells. Put plainly: Mixed leukocyte reaction ([3H]-thymidine incorporation). It counts as cell-based, human. On the set-up: key to Alloproliferation (T CD3^+): (−) negligible; (+) low; (++) moderate; (+++) high. The procedure:
CD3^+ T cells (10^5/well) and C4BP-treated (α7β1 and α7β0), or Factor H-treated, and LPS-activated Mo-DCs were seeded in a 96-well round-bottom plate at various DC:T cell ratios (1:40, 1:80 and 1:160) and cultured in X-VIVO 15 medium (Biowittaker, Walkersville, Md.) supplemented with 100 μg/ml of streptomycin, 100 IU/ml of penicillin and 2 mM L-glutamine (all from Invitrogen) plus 2% Human AB Serum. Allospecific proliferation was measured after 5 days of incubation. At day 4, the […] [^3H]-thymidine (1 μCi/well, Perkin Elmer, Boston, Mass.) was added, followed by incubation for another 16 h. Labeled cells were then harvested onto glass-fiber filters with a Filtermate Harvester (Packard, Meriden, Conn.), and the T cell proliferation rate was determined by the amount of [^3H]-thymidine incorporation, which was measured in a TopCount NXT counter (Packard). Results are reported as the mean cpm±SD of thymidine incorporation in quadruplicate culture wells.
(Uptake of a labelled nucleoside into DNA is a usual measure of proliferation.)

[3] abbreviates: transcriptional profile, treated and LPS-induced DCs.
The mark [4] stands for this setting: cytokine, treated and LPS-induced DCs.
Setting [5] is: pre-treated at 2 μg/ml, matured with LPS.

B1: C4BP α7β1: major C4BP isoform, 7 identical α-chains and 1 β-chain, purified from pooled human plasma (protein, UniProt P04003 49-597; P20851 18-252, looked up)
C4b-binding protein alpha …: NCGPPPTLSFAAPMDITLTETRFKTGTTLKYTCLPGYVRSHSTQTLTCNSDGEWVYNTFCIYKRCRHPGELRNGQVEIKTDLSFGSQIEFSCSEGFFLIGSTTSRCEVQDRGVGWSHPLPQCEIVKCKPPPDIRNGRHSGEENFYAYGFSVTYSCDPRFSLLGHASISCTVENETIGVWRPSPPTCEKITCRKPDVSHGEMVSGFGPIYNYKDTIVFKCQKGFVLRGSSVIHCDADSKWNPSPPACEPNSCINLPDIPHASWETYPRPTKEDVYVVGTVLRYRCHPGYKPTTDEPTTVICQKNLRWTPYQGCEALCCPEPKLNNGEITQHRKSRPANHCVYFYGDEISFSCHETSRFSAICQGDGTWSPRTPSCGDICNFPPKIAHGHYKQSSSYSFFKEEIIYECDKGYILVGQAKLSCSYSHWSAPAPQCKALCRKPELVNGRLSVDKDQYVEPENVTIQCDSGYGVVGPQSITCSGNRTWYPEVPKCEWETPEGCEQVLTGKRLMQCLPNPEDVKMALEVYKLSLEIEQLELQRDSARQSTLDKEL
C4b-binding protein beta chain: SDAEHCPELPPVDNSIFVAKEVEGQILGTYVCIKGYHLVGKKTLFCNASKEWDNTTTECRLGHCPDPVLVNGEFSSSGPVNVSDKITFMCNDHYILKGSNRSQCLEDHTWAPPFPICKSRDCDPPGNPVHGYFEGNNFTLGSTISYYCEDRYYLVGVQEQQCVDGEWSSALPVCKLIQEAPKPECEKALLAFQESKNLCEAMENFMQQLKESGMTMEELKYSLELKKAELKAKLL
For the molecule B1, in the test on human Mo-DCs [1] (RT-qPCR, pretreated, LPS-matured Mo-DCs), the CCR7 transcript level result is given as “but not with C4BP α7β1, significantly down-regulated”. For the same molecule, the “release of cytokines (IL-12p70, IL-10, IL-8, IL-6, TNF-α, IFN-γ)” value in the test on LPS-matured human Mo-DCs (pre-treated Mo-DCs matured with LPS, C4BP 2 μg/ml, Factor H 5 μg/ml) is recorded as “the same cytokine levels than untreated Mo-DCs”. For the same molecule, in the test with human Mo-DCs [2] (SEM after 48 h LPS maturation), the “surface morphology of Mo-DCs” value is on record as “analogous appearance than untreated Mo-DCs”. Besides, the “allogeneic T cell proliferation” value in the test on allogeneic CD3+ T cells (Mo-DCs pre-incubated and matured with LPS, DC:T 1:40, 1:80, 1:160, 5 days) was “maximal allogeneic T cell proliferation”.

B2: C4BP (β^−): C4BP isoforms lacking beta chain: C4BP (α7β0) or C4BP (α6β0) (protein, UniProt P04003 49-597, looked up)
C4b-binding protein alpha …: NCGPPPTLSFAAPMDITLTETRFKTGTTLKYTCLPGYVRSHSTQTLTCNSDGEWVYNTFCIYKRCRHPGELRNGQVEIKTDLSFGSQIEFSCSEGFFLIGSTTSRCEVQDRGVGWSHPLPQCEIVKCKPPPDIRNGRHSGEENFYAYGFSVTYSCDPRFSLLGHASISCTVENETIGVWRPSPPTCEKITCRKPDVSHGEMVSGFGPIYNYKDTIVFKCQKGFVLRGSSVIHCDADSKWNPSPPACEPNSCINLPDIPHASWETYPRPTKEDVYVVGTVLRYRCHPGYKPTTDEPTTVICQKNLRWTPYQGCEALCCPEPKLNNGEITQHRKSRPANHCVYFYGDEISFSCHETSRFSAICQGDGTWSPRTPSCGDICNFPPKIAHGHYKQSSSYSFFKEEIIYECDKGYILVGQAKLSCSYSHWSAPAPQCKALCRKPELVNGRLSVDKDQYVEPENVTIQCDSGYGVVGPQSITCSGNRTWYPEVPKCEWETPEGCEQVLTGKRLMQCLPNPEDVKMALEVYKLSLEIEQLELQRDSARQSTLDKEL
Regarding B2, in the test on human Mo-DCs [1] (setting [3]), the BIC-1 result is reported as “+” and the IDO entry is on record as “−”. In the test on LPS-matured human Mo-DCs (setting [4]), the IFN-γ entry is recorded as “−”, the IL-6 entry is recorded as “+”, the IL-8 entry was “++” and the IL-10 result was “+++”. In addition, in the test with LPS-matured human Mo-DCs (setting [4]), the IL-12 result was “−” and the TNF-α result was “+”. In addition, in the test with LPS-matured human Mo-DCs (setting [5]), the “production of IL-10” value was “increased the production”, the “release of IFN-γ” value was “prevented the release”, the “release of IL-6” value is reported as “reduced the release” and the “release of IL-8” value was “reduced the release”. In the test on LPS-matured human Mo-DCs (setting [5]), the “release of IL-12p70” value is “prevented the release” and the “release of TNF-α” value is recorded as “prevented the release”. For the same molecule, the “Dendrite density and lenght” value in the test on human Mo-DCs [2] (morphology, treated and LPS-induced DCs) is “+”. Besides, the “Alloproliferation (T CD3^+)” value in the test on allogeneic CD3+ T cells (functional assay, treated and LPS-induced DCs) is on record as “+”.

These data come from US10106589B2, “Compositions and methods for immunomodulation” (FUNDACIO INSTITUT D'INVESTIGACIO BIOMEDICA DE BELLVITGE …, priority 2011, dated 2018).
